Results as given in article PMC5199234.

What was measured:
[1] = target: T1, U1A N-terminal RRM (native) (UniProt P09012 1-102); assay: SPR
[2] = target: T1, U1A N-terminal RRM (native); assay: SPR; remark: listed apart in the source

T1 sequence (P09012 1-102): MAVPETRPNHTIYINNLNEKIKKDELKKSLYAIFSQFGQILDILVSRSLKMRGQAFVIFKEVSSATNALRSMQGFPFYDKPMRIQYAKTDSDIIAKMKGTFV

## AGCUUAUCCAUUGCACUCCGGAUGAGCU (structured_RNA) [U1hpII]
[1]
  Kd: ~40 pM

## GGCAGAUCUGAGCCUGGGAGCUCUCUGCC (structured_RNA) [TAR]
[2]
  binding result: no binding
